Target: T1, ERα (Homo sapiens, UniProt P03372)
T1 construct: expressed in transfected cells; host or cells: CV-1 (African green monkey kidney)
T1 sequence (P03372 1-595): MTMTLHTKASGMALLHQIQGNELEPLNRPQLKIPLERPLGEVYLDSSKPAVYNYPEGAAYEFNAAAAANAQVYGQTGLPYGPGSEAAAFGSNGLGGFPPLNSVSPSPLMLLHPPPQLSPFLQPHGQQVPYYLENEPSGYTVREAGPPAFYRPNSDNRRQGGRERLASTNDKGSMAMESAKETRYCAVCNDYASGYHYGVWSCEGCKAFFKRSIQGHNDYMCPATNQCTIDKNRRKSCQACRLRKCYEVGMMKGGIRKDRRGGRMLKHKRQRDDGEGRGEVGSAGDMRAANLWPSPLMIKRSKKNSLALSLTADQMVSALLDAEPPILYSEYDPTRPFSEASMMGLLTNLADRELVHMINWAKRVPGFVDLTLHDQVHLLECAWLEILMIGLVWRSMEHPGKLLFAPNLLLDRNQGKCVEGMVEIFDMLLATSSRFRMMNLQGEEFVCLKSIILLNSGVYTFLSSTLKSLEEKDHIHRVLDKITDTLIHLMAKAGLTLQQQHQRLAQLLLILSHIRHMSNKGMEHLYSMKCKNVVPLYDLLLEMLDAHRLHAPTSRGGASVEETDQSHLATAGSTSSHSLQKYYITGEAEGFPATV
Assay: Reporter gene assay, ERRγ3 or ERRγ2 coexisted with ERα in CV-1 cells
Format: cell-based
Conditions: ERRγ2 with ERα, CV-1 cells; FIGS. 19-20
Procedure: The reporter gene assay was performed using CV-1 cells (African green monkey kidney-derived cell line) as hosts. Host cells were transfected with luciferase reporter plasmids and expression plasmids for ERRγ3, ERRγ2, or both. They were then exposed to 4-hydroxytamoxifen at different concentrations (0, 10^−10 to −10^−5 M) for 24 hours, whereupon luciferase activity within the cells was measured.
Transfection was performed as follows: CV-1 cells were suspended at 2×10^5 cells/2.5 ml in DMEM medium supplemented with 10% fetal bovine serum, 2000 U/l of penicillin G, and 100 mg/l streptomycin. These cells were seeded to a 6-well plate at 2.5 ml/well, and cultured for 18 to 24 hours in a CO2 incubator at 37° C. in the presence of 5% CO2. 1 μg of each of the transcription factor expression plasmid, the luciferase reporter plasmid, and another luciferase reporter plasmid for normalizing the measured value (pRL-TK), were dissolved in Opti-MEM (Gibco BRL) to total of 150 μl. 7 μl of the cell transfection reagent LipofectAMINE 2000 (Gibco BRL) was diluted in 143 μl of Opti-MEM, and this was added to the mixture drop by drop while stirring. The mixture was incubated for 20 minutes.
The LipofectAMINE-DNA mixture was diluted in 1.5 ml of Opti-MEM, and added to cells that had been twice washed with 1 ml of PBS(−). The cells were cultured for four hours. The transfection reagent was removed from the culture, and 200 μl of trypsin/EDTA was added to the cells, which were then incubated at 37° C. for five minutes. […] of DMEM was added to suspend the cells, which were transferred to a centrifuge tube, and centrifuged for three minutes at 1000 rpm. After centrifugation, the cells were resuspended in DMEM to a concentration of 1.6×10^4 cells/100 μl, and 100 μl samples were seeded to a 96-well plate. When evaluating agents, a two-fold concentrated solution was made by pre-diluting a 1000 times concentrated agent DMSO solution with culture medium. 50 μl of the solution was mixed with 50 μl of a cell suspension at 1.6×10^4 cells/50 μl, and the culture was incubated in a CO2 incubator at 37° C. and 5% CO2 for 24 hours.
Luciferase activity was measured using the Dual-Luciferase™ Reporter Assay System (Promega). The culture supernatant was removed from each well of the 96-well plate and washed once with 100 μl of PBS(−). 20 μl of ×1 PLB (Passive Lysis Buffer) was added, and the mixture was incubated at room temperature for 15 minutes, and then stored at −20° C. in the freezer until use. […] The protocol for measurement was as follows: 50 μl of Luciferase Assay Reagent II was added to each well, stirred for 0.3 seconds and measured for one second. […] of Stop&Glo™ Reagent was then added, stirred for 0.3 seconds, and measured for one second. […] Average values and standard errors were calculated from triplicate samples.
To confirm whether or not ERRγ3 can regulate the transcription-controlling function of nuclear receptors other than ERRγ2, ERRγ3's function of regulating the transcription-controlling activity of nuclear receptors related to ERRγ (ERα, ERβ, and TR) was evaluated using a reporter gene assay. […] In addition to 4-hydroxytamoxifen, the cells were also contacted with 10^−5 M of (R)-estradiol in experiments related to ERα and ERβ, and 10^−5 M of thyroxine in the experiment related to TR.
The transfected cells were contacted with varying concentrations of 4-hydroxytamoxifen in the absence of […] or presence of 10^−7 M of β-estradiol.

B1: ERRγ2: known human ERRγ isoform, the long form (SEQ ID NO: 6) (protein, listed as Homo sapiens)
chain: MDSVELCLPESFSLHYEEELLCRMSNKDRHIDSSCSSFIKTEPSSPASLTDSVNHHSPGGSSDASGSYSSTMNGHQNGLDSPPLYPSAPILGGSGPVRKLYDDCSSTIVEDPQTKCEYMLNSMPKRLCLVCGDIASGYHYGVASCEACKAFFKRTIQGNIEYSCPATNECEITKRRRKSCQACRFMKCLKVGMLKEGVRLDRVRGGRQKYKRRIDAENSPYLNPQLVQPAKKPYNKIVSHLLVAEPEKIYAMPDPTVPDSDIKALTTLCDLADRELVVIIGWAKHIPGFSTLSLADQMSLLQSAWMEILILGVVYRSLSFEDELVYADDYIMDEDQSKLAGLLDLNNAILQLVKKYKSMKLEKEEFVTLKAIALANSDSMHIEDVEAVQKLQDVLHEALQDYEAGQHMEDPRRAGKMLMTLPLLRQTSTKAVQHFYNIKLEGKVPMHKLFLEMLEAKV
With B1 the “enhancement of transcription when ERRγ2 coexisted with ERα” value was “showed the function of enhancing transcription”.

From patent US20060148030A1, “Nuclear receptor err y 3” (FUJISAWA PHARMACEUTICAL CO., LTD, priority 2002, published 2006)
